B1: 2'-5'-oligoadenylate synthase 1 (Homo sapiens), P00973 (parent)
chain: MMDLRNTPAKSLDKFIEDYLLPDTCFRMQINHAIDIICGFLKERCFRGSSYPVCVSKVVKGGSSGKGTTLRGRSDADLVVFLSPLTTFQDQLNRRGEFIQEIRRQLEACQRERAFSVKFEVQAPRWGNPRALSFVLSSLQLGEGVEFDVLPAFDALGQLTGGYKPNPQIYVKLIEECTDLQKEGEFSTCFTELQRDFLKQRPTKLKSLIRLVKHWYQNCKKKLGKLPPQYALELLTVYAWERGSMKTHFNTAQGFRTVLELVINYQQLCIYWTKYYDFKNPIIEKYLRRQLTKPRPVILDPADPTGNLGGGDPKGWRQLAQEAEAWLNYPCFKNWDGSPVSSWILLAESNSADDETDDPRRYQKYGYIGTHEYPHFSHRPSTLQAASTPQAEEDWTCTIL
partner: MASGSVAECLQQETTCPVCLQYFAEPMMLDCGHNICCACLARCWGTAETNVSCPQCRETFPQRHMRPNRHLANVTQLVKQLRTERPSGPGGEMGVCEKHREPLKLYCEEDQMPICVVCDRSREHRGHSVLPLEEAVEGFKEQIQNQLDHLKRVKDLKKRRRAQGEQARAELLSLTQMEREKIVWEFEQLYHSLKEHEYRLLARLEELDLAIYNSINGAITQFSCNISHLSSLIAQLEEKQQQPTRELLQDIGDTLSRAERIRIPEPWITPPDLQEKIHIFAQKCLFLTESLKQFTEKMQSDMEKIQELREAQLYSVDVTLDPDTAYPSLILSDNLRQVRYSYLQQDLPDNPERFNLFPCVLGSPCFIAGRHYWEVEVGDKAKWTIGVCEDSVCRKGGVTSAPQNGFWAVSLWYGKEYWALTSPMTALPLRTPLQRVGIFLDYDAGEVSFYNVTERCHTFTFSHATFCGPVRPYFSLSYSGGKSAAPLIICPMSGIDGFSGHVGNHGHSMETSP
B2: E3 ubiquitin-protein ligase SH3RF2 (Homo sapiens), Q8TEC5 (parent)
chain: MDDLTLLDLLECPVCFEKLDVTAKVLPCQHTFCKPCLQRVFKAHKELRCPECRTPVFSNIEALPANLLLVRLLDGVRSGQSSGRGGSFRRPGTMTLQDGRKSRTNPRRLQASPFRLVPNVRIHMDGVPRAKALCNYRGQNPGDLRFNKGDIILLRRQLDENWYQGEINGISGNFPASSVEVIKQLPQPPPLCRALYNFDLRGKDKSENQDCLTFLKDDIITVISRVDENWAEGKLGDKVGIFPILFVEPNLTARHLLEKNKGRQSSRTKNLSLVSSSSRGNTSTLRRGPGSRRKVPGQFSITTALNTLNRMVHSPSGRHMVEISTPVLISSSNPSVITQPMEKADVPSSCVGQVSTYHPAPVSPGHSTAVVSLPGSQQHLSANMFVALHSYSAHGPDELDLQKGEGVRVLGKCQDGWLRGVSLVTGRVGIFPNNYVIPIFRKTSSFPDSRSPGLYTTWTLSTSSVSSQGSISEGDPRQSRPFKSVFVPTAIVNPVRSTAGPGTLGQGSLRKGRSSMRKNGSLQRPLQSGIPTLVVGSLRRSPTMVLRPQQFQFYQPQGIPSSPSAVVVEMGSKPALTGEPALTCISRGSEAWIHSAASSLIMEDKEIPIKSEPLPKPPASAPPSILVKPENSRNGIEKQVKTVRFQNYSPPPTKHYTSHPTSGKPEQPATLKASQPEAASLGPEMTVLFAHRSGCHSGQQTDLRRKSALGKATTLVSTASGTQTVFPSK
B3: Cytochrome P450 4F12 (Homo sapiens), Q9HCS2 (parent)
chain: MSLLSLPWLGLRPVATSPWLLLLLVVGSWLLARILAWTYAFYNNCRRLQCFPQPPKRNWFWGHLGLITPTEEGLKNSTQMSATYSQGFTVWLGPIIPFIVLCHPDTIRSITNASAAIAPKDNLFIRFLKPWLGEGILLSGGDKWSRHRRMLTPAFHFNILKSYITIFNKSANIMLDKWQHLASEGSSRLDMFEHISLMTLDSLQKCIFSFDSHCQERPSEYIATILELSALVEKRSQHILQHMDFLYYLSHDGRRFHRACRLVHDFTDAVIRERRRTLPTQGIDDFFKDKAKSKTLDFIDVLLLSKDEDGKALSDEDIRAEADTFMFGGHDTTASGLSWVLYNLARHPEYQERCRQEVQELLKDRDPKEIEWDDLAQLPFLTMCVKESLRLHPPAPFISRCCTQDIVLPDGRVIPKGITCLIDIIGVHHNPTVWPDPEVYDPFRFDPENSKGRSPLAFIPFSAGPRNCIGQAFAMAEMKVVLALMLLHFRFLPDHTEPRRKLELIMRAEGGLWLRVEPLNVSLQ
partner: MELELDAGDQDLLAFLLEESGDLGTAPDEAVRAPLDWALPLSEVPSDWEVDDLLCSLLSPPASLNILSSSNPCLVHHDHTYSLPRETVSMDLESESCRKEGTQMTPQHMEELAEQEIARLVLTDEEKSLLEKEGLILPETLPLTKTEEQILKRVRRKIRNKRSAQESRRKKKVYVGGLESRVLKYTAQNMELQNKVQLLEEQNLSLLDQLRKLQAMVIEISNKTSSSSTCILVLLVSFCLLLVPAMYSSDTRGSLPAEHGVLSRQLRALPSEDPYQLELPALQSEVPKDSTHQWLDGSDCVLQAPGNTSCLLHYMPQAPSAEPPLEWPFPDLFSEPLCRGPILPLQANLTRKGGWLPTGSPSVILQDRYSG
B4: Segment polarity protein dishevelled homolog DVL-2 (Homo sapiens), O14641 (parent)
chain: MAGSSTGGGGVGETKVIYHLDEEETPYLVKIPVPAERITLGDFKSVLQRPAGAKYFFKSMDQDFGVVKEEISDDNARLPCFNGRVVSWLVSSDNPQPEMAPPVHEPRAELAPPAPPLPPLPPERTSGIGDSRPPSFHPNVSSSHENLEPETETESVVSLRRERPRRRDSSEHGAGGHRTGGPSRLERHLAGYESSSTLMTSELESTSLGDSDEEDTMSRFSSSTEQSSASRLLKRHRRRRKQRPPRLERTSSFSSVTDSTMSLNIITVTLNMEKYNFLGISIVGQSNERGDGGIYIGSIMKGGAVAADGRIEPGDMLLQVNDMNFENMSNDDAVRVLRDIVHKPGPIVLTVAKCWDPSPQAYFTLPRNEPIQPIDPAAWVSHSAALTGTFPAYPGSSSMSTITSGSSLPDGCEGRGLSVHTDMASVTKAMAAPESGLEVRDRMWLKITIPNAFLGSDVVDWLYHHVEGFPERREARKYASGLLKAGLIRHTVNKITFSEQCYYVFGDLSGGCESYLVNLSLNDNDGSSGASDQDTLAPLPGATPWPLLPTFSYQYPAPHPYSPQPPPYHELSSYTYGGGSASSQHSEGSRSSGSTRSDGGAGRTGRPEERAPESKSGSGSESEPSSRGGSLRRGGEASGTSDGGPPPSRGSTGGAPNLRAHPGLHPYGPPPGMALPYNPMMVVMMPPPPPPVPPAVQPPGAPPVRDLGSVPPELTASRQSFHMAMGNPSEFFVDVM

Variants of: B1
Conditions: with tri27_human TRIM27, P14373
With MMDLRNTPAKSLDKFIEDYLLPDTCFRMQINHAIDIICGFLKERCFRGSSYPVCVSKVVKGGSSGKGTTLRGRSDADLVVFLSPLTTFQDQLNRRGEFIQEIRRQLEACQRERAFSVKFEVQAPRWGNPRALSFVLSSLQLGEGVEFDVLPAFDALGQLTGGYKPNPQIYVKLIEECTDLQKEGEFSTCFTELQRDFLKQRPTKLKSLIRLVKHWYQNCKKKLGKLPPQYALELLTVYAWERGSMKTHFNTAQGFRTVLELVINYQQLCIYWTKYYDFKNPIIEKYLRRQLTKPRPVILDPADPTGNLGGGDPKGWRQLAQEAEAWPNYPCFKNWDGSPVSSWILLAESNSADDETDDPRRYQKYGYIGTHEYPHFSHRPSTLQAASTPQAEEDWTCTIL [L327P] the “effect of a mutation on the interaction” value was “disrupting interaction strength”.

Variants of: B2
Conditions: with rbpms_human RBPMS
For V687I, the “effect of a mutation on the interaction” value was “with no effect”.

Variants of: B2
Conditions: with amol2_human AMOTL2, Q9Y2J4
Sequence of amol2_human AMOTL2, Q9Y2J4 (Q9Y2J4 whole entry): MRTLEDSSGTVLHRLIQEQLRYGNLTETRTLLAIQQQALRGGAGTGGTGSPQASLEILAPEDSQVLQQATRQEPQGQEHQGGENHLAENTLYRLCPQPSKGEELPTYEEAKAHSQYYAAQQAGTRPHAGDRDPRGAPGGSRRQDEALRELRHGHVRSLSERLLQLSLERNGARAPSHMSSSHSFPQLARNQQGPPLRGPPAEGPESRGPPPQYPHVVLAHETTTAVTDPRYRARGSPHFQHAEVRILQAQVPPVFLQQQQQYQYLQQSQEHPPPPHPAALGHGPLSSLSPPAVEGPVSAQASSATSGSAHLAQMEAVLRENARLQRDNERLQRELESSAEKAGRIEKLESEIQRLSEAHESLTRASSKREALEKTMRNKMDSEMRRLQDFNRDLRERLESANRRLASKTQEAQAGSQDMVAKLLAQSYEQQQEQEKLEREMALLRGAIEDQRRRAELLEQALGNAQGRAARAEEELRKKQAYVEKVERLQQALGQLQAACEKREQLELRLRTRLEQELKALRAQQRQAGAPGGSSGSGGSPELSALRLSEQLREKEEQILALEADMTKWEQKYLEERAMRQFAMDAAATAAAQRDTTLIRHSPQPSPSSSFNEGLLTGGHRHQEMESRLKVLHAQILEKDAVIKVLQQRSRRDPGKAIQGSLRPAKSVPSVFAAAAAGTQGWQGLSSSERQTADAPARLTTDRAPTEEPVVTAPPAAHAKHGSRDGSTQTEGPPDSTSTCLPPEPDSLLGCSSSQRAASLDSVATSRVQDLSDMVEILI
V687I was tested, and the “effect of a mutation on the interaction” value was “with no effect”.

Variants of: B2
Conditions: with mtus2_human MTUS2, Q5JR59
Sequence of mtus2_human MTUS2, Q5JR59 (Q5JR59 whole entry): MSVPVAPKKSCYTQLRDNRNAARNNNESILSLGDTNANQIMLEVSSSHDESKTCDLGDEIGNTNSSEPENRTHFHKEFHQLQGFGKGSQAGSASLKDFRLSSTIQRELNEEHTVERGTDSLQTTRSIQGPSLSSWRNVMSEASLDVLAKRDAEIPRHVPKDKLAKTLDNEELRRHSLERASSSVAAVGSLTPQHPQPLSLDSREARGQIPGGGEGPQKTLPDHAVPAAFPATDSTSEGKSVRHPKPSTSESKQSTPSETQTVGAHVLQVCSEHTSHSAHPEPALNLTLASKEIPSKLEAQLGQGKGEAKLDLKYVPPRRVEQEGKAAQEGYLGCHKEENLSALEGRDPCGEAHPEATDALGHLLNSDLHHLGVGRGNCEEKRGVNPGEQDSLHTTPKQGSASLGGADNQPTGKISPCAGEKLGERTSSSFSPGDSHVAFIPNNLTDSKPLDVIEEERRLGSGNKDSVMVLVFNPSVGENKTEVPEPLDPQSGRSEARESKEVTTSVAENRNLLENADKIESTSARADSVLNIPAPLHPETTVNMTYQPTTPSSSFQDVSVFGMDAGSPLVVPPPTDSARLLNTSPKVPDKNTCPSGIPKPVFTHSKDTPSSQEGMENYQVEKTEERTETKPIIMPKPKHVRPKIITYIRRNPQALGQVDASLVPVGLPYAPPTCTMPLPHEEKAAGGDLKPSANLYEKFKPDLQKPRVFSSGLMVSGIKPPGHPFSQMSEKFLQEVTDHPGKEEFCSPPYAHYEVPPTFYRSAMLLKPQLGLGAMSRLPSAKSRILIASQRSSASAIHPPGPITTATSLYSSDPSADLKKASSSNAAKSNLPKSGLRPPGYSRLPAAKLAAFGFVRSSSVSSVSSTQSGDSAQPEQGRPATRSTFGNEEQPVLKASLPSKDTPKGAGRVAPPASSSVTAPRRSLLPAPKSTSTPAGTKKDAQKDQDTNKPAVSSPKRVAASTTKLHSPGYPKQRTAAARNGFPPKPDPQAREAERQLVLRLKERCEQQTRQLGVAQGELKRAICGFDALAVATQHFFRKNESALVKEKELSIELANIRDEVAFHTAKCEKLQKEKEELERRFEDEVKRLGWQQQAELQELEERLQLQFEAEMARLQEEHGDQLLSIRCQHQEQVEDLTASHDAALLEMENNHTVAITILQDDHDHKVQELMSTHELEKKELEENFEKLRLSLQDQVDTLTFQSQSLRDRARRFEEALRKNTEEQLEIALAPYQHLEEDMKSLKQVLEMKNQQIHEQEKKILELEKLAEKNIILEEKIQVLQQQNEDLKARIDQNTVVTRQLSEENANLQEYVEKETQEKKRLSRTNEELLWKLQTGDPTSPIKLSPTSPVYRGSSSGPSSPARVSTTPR
In the case of V687I, the “effect of a mutation on the interaction” value is reported as “with no effect”.

Variants of: B3
Conditions: with creb3_human CREB3, O43889
In the case of R272Q, the “effect of a mutation on the interaction” value is reported as “with no effect”. For R254W, the “effect of a mutation on the interaction” value was “disrupting interaction strength”.

Variants of: B4
Conditions: with traf2_human TRAF2, Q12933
Sequence of traf2_human TRAF2, Q12933 (Q12933 whole entry): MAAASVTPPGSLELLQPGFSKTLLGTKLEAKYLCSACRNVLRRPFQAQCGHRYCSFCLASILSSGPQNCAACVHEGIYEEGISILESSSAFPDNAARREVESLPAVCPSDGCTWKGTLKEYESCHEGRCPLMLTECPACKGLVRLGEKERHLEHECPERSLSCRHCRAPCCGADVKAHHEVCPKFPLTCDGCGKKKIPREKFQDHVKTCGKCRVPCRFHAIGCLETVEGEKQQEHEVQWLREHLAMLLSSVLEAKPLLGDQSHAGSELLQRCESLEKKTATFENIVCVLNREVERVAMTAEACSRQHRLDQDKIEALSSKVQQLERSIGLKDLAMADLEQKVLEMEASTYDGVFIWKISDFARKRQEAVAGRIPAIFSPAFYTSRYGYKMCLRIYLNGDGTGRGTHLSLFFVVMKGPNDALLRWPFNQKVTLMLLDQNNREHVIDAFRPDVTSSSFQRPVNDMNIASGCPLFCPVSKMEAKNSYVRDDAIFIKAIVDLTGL
For R415Q, the “effect of a mutation on the interaction” value was “with no effect”.

Variants of: B4
Conditions: with ap2m1_human AP2M1, Q96CW1
Sequence of ap2m1_human AP2M1, Q96CW1 (Q96CW1 whole entry): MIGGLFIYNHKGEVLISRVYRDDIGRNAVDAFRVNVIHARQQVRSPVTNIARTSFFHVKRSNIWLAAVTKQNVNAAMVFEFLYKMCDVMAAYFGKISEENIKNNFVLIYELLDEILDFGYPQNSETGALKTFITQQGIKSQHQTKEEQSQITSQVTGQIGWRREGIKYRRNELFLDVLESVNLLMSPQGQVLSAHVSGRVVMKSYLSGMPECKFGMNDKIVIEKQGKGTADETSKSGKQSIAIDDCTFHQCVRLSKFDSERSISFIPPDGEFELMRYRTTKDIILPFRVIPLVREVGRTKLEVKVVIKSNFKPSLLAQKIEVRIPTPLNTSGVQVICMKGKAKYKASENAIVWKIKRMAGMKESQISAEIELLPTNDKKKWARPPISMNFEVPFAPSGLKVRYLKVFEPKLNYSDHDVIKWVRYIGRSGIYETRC
With R415Q the “effect of a mutation on the interaction” value was “with no effect”.

From IntAct's records for PubMed 31515488
